What was measured:
[1] = Stability of [^68Ga]Ga-Trivehexin in formulation (PBS), radio-HPLC; assay type: physicochemical; settings: Phosphate Buffer Saline, 2 h co-incubation of final product
Protocol: Radiochemical purity was evaluated by radio-HPLC and radio-TLC. For radio-HPLC, a mobile phase of H2O with 0.1% trifluoroacetic acid (TFA) (v/v, phase A) and acetonitrile with 0.1% TFA (v/v, phase B) was used with a flow rate of 1.0 mL/min and a linear elution gradient as follows: 0-5 min (0-95% A); 5-10 min (95-30% A);10-20 min (30-0% A). For radio-TLC, 0.4 M ammonium acetate solution/methanol (v/v, 1/1) (A) and 0.1 M citrate buffer (B) were used as mobile phases, respectively.
The stability of [^68Ga]Ga-Trivehexin in formulation and serum was further evaluated in Phosphate Buffer Saline (PBS) and Fetal Bovine Serum (FBS). After co-incubation of the final product with PBS or FBS for 60 or 120 min, radio-HPLC was used for the analysis.

[2] = clinical; settings: human, in vivo, iv, total radioactivity
Protocol: (§1) The clinical study was approved by Medical Ethics Committee, Zhongnan Hospital of Wuhan University and registered at ClinicalTrials.gov (NCT05835570). PET/CT imaging was performed using a Siemens-Biograph mCT PET/CT scanner (Siemens Healthineers, Erlangen, Germany). No special preparation was needed for [^68Ga]Ga-Trivehexin PET/CT. The injection dose was 87-122 MBq (70.7 MBq/mL, 90.9 MBq/nmol) and was determined on the basis of the patient’s weight (1.85 MBq/kg). PET/CT images were scanned from the top of the head to the upper thigh. PET data were obtained in a three-dimensional mode (matrix 200 × 200) of 6-8 bed positions (3 min/bed). Attenuation correction of PET images was performed using low-dose CT data. Image reconstruction was performed using the TrueX and time-of-flight (ultrahigh-definition PET) algorithms.
(§2) Applications of [^68Ga]Ga-Trivehexin in 3 healthy volunteers were done with written informed consent, and details of the volunteers were shown in Supplementary Table S2 . […] The PET scan was performed at 10 min, 35 min, and 60 min after intravenous injection, without repeated CT scans. Another PET/CT imaging sequence was obtained at 150 min post-injection, as the subject had to leave the scanner for voiding. Based on human PET data, the dosimetry values were calculated using OLINDA V2.2 to calculate organ doses and effective dose (as defined by International Commission on Radiological Protection publication 103) ([14]) using the International Commission on Radiological Protection publication 89 ([15]) adult human male and female models.

[3] = test system: healthy volunteers; assay: clinical; settings: human, in vivo, iv
Protocol: as §1, §2

[4] = test system: healthy volunteers; design: species or system human; settings: in vivo
Protocol: as §2

[5] = clinical; settings: human, in vivo, iv, total radioactivity; remark: listed apart in the source

In the case of `CC(C)C[C@@H]1NC(=O)[C@H](CC(=O)O)NC(=O)CNC(=O)[C@H](CCCNC(=N)N)NC(=O)[C@H](Cc2ccc(O)cc2)NC(=O)[C@H](CCCCNC(=O)CCc2cn(CCCNC(=O)CCP(=O)(O)CN3CCN(CP(=O)(O)CCC(=O)NCCCn4cc(CCC(=O)NCCCC[C@H]5C(=O)N[C@@H](Cc6ccc(O)cc6)C(=O)N[C@@H](CCCNC(=N)N)C(=O)NCC(=O)N[C@@H](CC(=O)O)C(=O)N[C@@H](CC(C)C)C(=O)N[C@@H](C)C(=O)N[C@@H](Cc6ccc(O)cc6)C(=O)N6CCC[C@@H]6C(=O)N5C)nn4)CCN(CP(=O)(O)CCC(=O)NCCCn4cc(CCC(=O)NCCCC[C@H]5C(=O)N[C@@H](Cc6ccc(O)cc6)C(=O)N[C@@H](CCCNC(=N)N)C(=O)NCC(=O)N[C@@H](CC(=O)O)C(=O)N[C@@H](CC(C)C)C(=O)N[C@@H](C)C(=O)N[C@@H](Cc6ccc(O)cc6)C(=O)N6CCC[C@@H]6C(=O)N5C)nn4)CC3)nn2)N(C)C(=O)[C@H]2CCCN2C(=O)[C@H](Cc2ccc(O)cc2)NC(=O)[C@H](C)NC1=O` [[^68Ga]Ga-Trivehexin, metal not drawn], the “intact tracer remained in PBS” value [1] is reported as “up to 98.9%”, the SUV at 1 h ([2]; SUVmean ± SD Colon) is reported as 1.07 ± 0.21 SUV and the SUV at 2.5 h ([2]; SUVmean ± SD Fat tissue) is reported as 0.22 ± 0.1 SUV. The SUV at 2.5 h ([2]; SUVmean ± SD Kidney) was 21.3 ± 2 SUV, the SUV at 1 h ([2]; SUVmean ± SD Liver) was 0.82 ± 0.07 SUV and the SUV at 2.5 h ([2]; SUVmean ± SD Lung) was 0.45 ± 0.13 SUV. The SUV at 1 h ([2]; SUVmean ± SD Muscle) was 0.97 ± 0.1 SUV, the SUV at 2.5 h ([2]; SUVmean ± SD Myocardium) was 0.5 ± 0.09 SUV and the SUV at 2.5 h ([2]; SUVmean ± SD Parotid gland) was 0.97 ± 0.07 SUV. For the same molecule, the SUV at 1 h ([2]; SUVmean ± SD Spinal Canal(C5)) was 0.85 ± 0.13 SUV, the SUV at 2.5 h ([2]; SUVmean ± SD Spleen) was 0.55 ± 0.07 SUV and the “SUVmean ± SD Brain” value [3] was 0.01 ± 0.00. The “Dose Adrenals” value [4] was 3.22E-02 mGy/MBq, the “Dose Brain” value [4] was 1.40E-03 mGy/MBq and the “Dose Esophagus” value [4] was 1.98E-02 mGy/MBq. The “Dose Eyes” value [4] was 4.25E-03 mGy/MBq, the “Dose Gallbladder Wall” value [4] was 2.09E-02 mGy/MBq and the “Dose Heart Wall” value [4] was 1.73E-02 mGy/MBq. The “Dose Kidneys” value [4] was 2.26E-01 mGy/MBq, the “Dose Left colon” value [4] was 1.88E-02 mGy/MBq and the “Dose Liver” value [4] was 1.58E-02 mGy/MBq. The “Dose Lungs” value [4] was 8.72E-03 mGy/MBq, the “Dose Osteogenic Cells” value [4] was 1.86E-02 mGy/MBq and the “Dose Pancreas” value [4] was 1.96E-02 mGy/MBq. The “Dose Prostate” value [4] was 1.77E-02 mGy/MBq, the “Dose Rectum” value [4] was 1.96E-02 mGy/MBq and the “Dose Red Marrow” value [4] was 1.16E-02 mGy/MBq. The “Dose Right colon” value [4] was 1.86E-02 mGy/MBq, the “Dose Salivary Glands” value [4] was 1.53E-02 mGy/MBq and the “Dose Small Intestine” value [4] was 1.78E-02 mGy/MBq. For the same molecule, the “Dose Spleen” value [4] was 1.68E-02 mGy/MBq, the “Dose Stomach Wall” value [4] was 1.77E-02 mGy/MBq and the “Dose Testes” value [4] was 1.41E-02 mGy/MBq. The “Dose Thymus” value [4] was 1.31E-02 mGy/MBq, the “Dose Thyroid” value [4] was 1.96E-02 mGy/MBq and the “Dose Total Body” value [4] was 1.26E-02 mGy/MBq. For the same molecule, the “Dose Urinary Bladder Wall” value [4] was 8.24E-02 mGy/MBq, the “Effective Dose” value [4] was 1.67E-02 mGy/MBq and the “effective dose in adrenals” value [4] was 3.22E-02 mSv/MBq. The “effective dose in kidneys” value [4] was 2.26E-01 mSv/MBq, the “effective dose in urinary bladder wall” value [4] was 8.24E-02 mSv/MBq and the “total body effective dose” value [4] was 1.67E-02 mSv/MBq. For the same molecule, the SUV at 0.25 h ([5]; SUVmean ± SD Brain) was 0.04 ± 0.01 SUV, the SUV at 0.5 h ([5]; SUVmean ± SD Brain) was 0.03 ± 0.01 SUV and the SUV at 0.25 h ([5]; SUVmean ± SD Colon) was 1.86 ± 0.31 SUV. The SUV at 0.5 h ([5]; SUVmean ± SD Colon) was 1.52 ± 0.36 SUV, the SUV at 2.5 h ([5]; SUVmean ± SD Colon) was 0.78 ± 0.16 SUV and the SUV at 0.25 h ([5]; SUVmean ± SD Eyes) was 0.36 ± 0.04 SUV. For the same molecule, the SUV at 0.5 h ([5]; SUVmean ± SD Eyes) was 0.28 ± 0.14 SUV, the SUV at 1 h ([5]; SUVmean ± SD Eyes) was 0.71 ± 0.28 SUV and the SUV at 2.5 h ([5]; SUVmean ± SD Eyes) was 0.12 ± 0.03 SUV. For the same molecule, the SUV at 0.25 h ([5]; SUVmean ± SD Fat tissue) was 0.26 ± 0.03 SUV, the SUV at 0.5 h ([5]; SUVmean ± SD Fat tissue) was 0.22 ± 0.03 SUV and the SUV at 1 h ([5]; SUVmean ± SD Fat tissue) was 0.26 ± 0.02 SUV. It also gave an SUV at 0.25 h ([5]; SUVmean ± SD Kidney) of 19.3 ± 1.13 SUV, an SUV at 0.5 h ([5]; SUVmean ± SD Kidney) of 21.5 ± 1.28 SUV and an SUV at 1 h ([5]; SUVmean ± SD Kidney) of 23.4 ± 2.38 SUV. It also gave an SUV at 0.25 h ([5]; SUVmean ± SD Liver) of 1.68 ± 0.26 SUV, an SUV at 0.5 h ([5]; SUVmean ± SD Liver) of 1.11 ± 0.23 SUV and an SUV at 2.5 h ([5]; SUVmean ± SD Liver) of 0.65 ± 0.1 SUV. It also gave an SUV at 0.25 h ([5]; SUVmean ± SD Lung) of 0.65 ± 0.03 SUV, an SUV at 0.5 h ([5]; SUVmean ± SD Lung) of 0.58 ± 0.14 SUV and an SUV at 1 h ([5]; SUVmean ± SD Lung) of 0.53 ± 0.05 SUV. The SUV at 0.25 h ([5]; SUVmean ± SD Muscle) was 1.04 ± 0.1 SUV, the SUV at 0.5 h ([5]; SUVmean ± SD Muscle) was 1.04 ± 0.01 SUV and the SUV at 2.5 h ([5]; SUVmean ± SD Muscle) was 0.68 ± 0.1 SUV. It also gave an SUV at 0.25 h ([5]; SUVmean ± SD Myocardium) of 1.69 ± 0.35 SUV, an SUV at 0.5 h ([5]; SUVmean ± SD Myocardium) of 0.83 ± 0.13 SUV and an SUV at 1 h ([5]; SUVmean ± SD Myocardium) of 0.52 ± 0.01 SUV. The SUV at 0.25 h ([5]; SUVmean ± SD Oral mucosa) was 2.6 ± 0.38 SUV, the SUV at 0.5 h ([5]; SUVmean ± SD Oral mucosa) was 2.28 ± 0.13 SUV and the SUV at 1 h ([5]; SUVmean ± SD Oral mucosa) was 2.12 ± 0.43 SUV. It also gave an SUV at 2.5 h ([5]; SUVmean ± SD Oral mucosa) of 1.59 ± 0.42 SUV, an SUV at 0.25 h ([5]; SUVmean ± SD Pancreas) of 2.46 ± 0.12 SUV and an SUV at 0.5 h ([5]; SUVmean ± SD Pancreas) of 1.47 ± 0.24 SUV. For the same molecule, the SUV at 1 h ([5]; SUVmean ± SD Pancreas) was 1.01 ± 0.11 SUV, the SUV at 2.5 h ([5]; SUVmean ± SD Pancreas) was 1.13 ± 0.28 SUV and the SUV at 0.25 h ([5]; SUVmean ± SD Parotid gland) was 2.31 ± 0.09 SUV. For the same molecule, the SUV at 0.5 h ([5]; SUVmean ± SD Parotid gland) was 1.19 ± 0.06 SUV, the SUV at 1 h ([5]; SUVmean ± SD Parotid gland) was 1.01 ± 0.1 SUV and the SUV at 0.25 h ([5]; SUVmean ± SD Spinal Canal(C5)) was 1.17 ± 0.15 SUV. It also gave an SUV at 0.5 h ([5]; SUVmean ± SD Spinal Canal(C5)) of 0.62 ± 0.12 SUV, an SUV at 2.5 h ([5]; SUVmean ± SD Spinal Canal(C5)) of 0.54 ± 0.15 SUV and an SUV at 0.25 h ([5]; SUVmean ± SD Spleen) of 1.95 ± 0.12 SUV. It also gave an SUV at 0.5 h ([5]; SUVmean ± SD Spleen) of 1.01 ± 0.06 SUV, an SUV at 1 h ([5]; SUVmean ± SD Spleen) of 0.76 ± 0.01 SUV and an SUV at 0.25 h ([5]; SUVmean ± SD Thyroid gland) of 3.41 ± 0.22 SUV. The SUV at 0.5 h ([5]; SUVmean ± SD Thyroid gland) was 1.54 ± 0.29 SUV, the SUV at 1 h ([5]; SUVmean ± SD Thyroid gland) was 1.37 ± 0.04 SUV and the SUV at 2.5 h ([5]; SUVmean ± SD Thyroid gland) was 1.01 ± 0.37 SUV.
